Target: T1, CD47 receptors on HT-29 cells (human-derived colon cancer cells) (human, UniProt Q08722 19-323)
T1 construct: whole, on cells
Assay: confocal microscopy on HT-29 cells, uptake with and without CD47 antibody
Method: It was investigated whether the fusion protein-siRNA complex prepared in Example 2 is effectively taken up into cells in vitro. First, 2×10⁵ HT-29 cells, which are human-derived colon cancer cells, were seeded onto a 35-mm cover glass bottom dish. Then, after adding SIRPα protein (SIRPα), CD47 siRNA or the fusion protein-siRNA complex prepared in Example 2 (SIPRα-CD47 siRNA), the cells were cultured at 37° C. for a day. Then, CD47 SiRNA was stained red by using the TOTO3 stain. Next, after treating with the fusion protein-siRNA complex separated and purified in Example 2 at a concentration of 100 pmol/mL, the cells were cultured for 4 hours in a carbon dioxide incubator at 37° C. Then, the cells were treated with a fixative and the SIRPα protein was stained green using FITC-labeled His-tag antibody. After staining the nuclei of the cells by treating with a 4′,6-diamidino-2-phenylindole (DAPI) solution for 10 minutes, fluorescence was measured by confocal microscopy.
A mixture solution of the fusion protein-siRNA complex prepared in Example 2 and the CD47 antibody (Ab) was used as a control group.

T1 sequence (Q08722 19-323): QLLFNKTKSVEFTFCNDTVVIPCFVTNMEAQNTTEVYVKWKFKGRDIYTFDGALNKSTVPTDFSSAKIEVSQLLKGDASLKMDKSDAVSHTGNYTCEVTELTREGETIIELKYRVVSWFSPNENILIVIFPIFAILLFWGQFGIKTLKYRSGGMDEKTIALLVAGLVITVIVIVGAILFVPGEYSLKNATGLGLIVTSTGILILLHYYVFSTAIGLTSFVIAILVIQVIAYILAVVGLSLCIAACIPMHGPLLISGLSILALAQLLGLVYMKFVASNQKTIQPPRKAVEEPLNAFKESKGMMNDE

binding result: binds
B1: fusion protein-siRNA complex prepared in Example 2 (SIRPα-CD47 siRNA) (other)
chain: EEELQIIQPDKSVLVAAGETATLRCTITSLFPVGPIQWFRGAGPGRVLIYNQRQGPFPRVTTVSDTTKRNNMDFSIRIGNITPADAGTYYCIKFRKGSPDDVEFKSGAGTELSVRAKPVDGGFLGGGGCG
modifications: CD47 siRNA (sense SEQ ID NO: 17, antisense SEQ ID NO: 18) bound 1:1 through maleimide at the 3'-end of the sense strand to the thiol group of the cysteine at the end of the fusion protein
notes: The protein was expressed from pET28a in E. coli, purified on a His-tag column and detected with a His-tag antibody; also called SIPRα-CD47 siRNA; immunoregulatory protein-siRNA complex

— patent US20210015931A1 (KOREA INSTITUTE OF SCIENCE AND TECHNOLOGY, published 2021)
